Where a chain is given by its changes, count along the chain named. Several values for one entry are separate records, joined by “and”; a condition that tells them apart may be missing. Equal values may be shown once. Read-outs that look alike come from different tables or passages of the source.

Experiment [1] has as its target T1, rhNR10 (recombinant human NR10) (human, UniProt Q8NI17 20-519, limits assumed).
T1 construct: also called IL-31 receptor; IL31RA
T1 sequence: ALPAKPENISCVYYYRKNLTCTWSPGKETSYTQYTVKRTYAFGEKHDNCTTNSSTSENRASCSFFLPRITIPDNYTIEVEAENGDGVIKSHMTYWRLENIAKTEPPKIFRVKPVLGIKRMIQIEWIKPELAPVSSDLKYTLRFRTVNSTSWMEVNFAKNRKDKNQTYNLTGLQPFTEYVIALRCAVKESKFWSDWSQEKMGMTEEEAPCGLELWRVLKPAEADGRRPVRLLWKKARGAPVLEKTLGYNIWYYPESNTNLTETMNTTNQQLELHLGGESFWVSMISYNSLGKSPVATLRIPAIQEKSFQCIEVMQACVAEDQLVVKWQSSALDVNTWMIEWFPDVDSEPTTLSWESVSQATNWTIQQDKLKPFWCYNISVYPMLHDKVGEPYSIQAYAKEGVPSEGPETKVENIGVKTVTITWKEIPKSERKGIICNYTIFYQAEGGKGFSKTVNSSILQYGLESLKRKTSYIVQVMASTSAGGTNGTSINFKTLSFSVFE
Kind of experiment: SPR, Biacore T100; antibody captured on Protein A, rhNR10 as analyte. How it is done: (§1) Kinetic analysis of the antigen-antibody reaction was carried out using Biacore T100 (GE Healthcare Biosciences). The antigen-antibody interaction was measured by immobilizing rec-Protein A (hereinafter Protein A) (ZYMED) onto a sensor chip, capturing an antibody on the immobilized Protein A, and then reacting the antigen as an analyte. Various concentrations of rhNR10 were used as the antigen. The kinetic parameters, association rate constant kₐ (1/Ms) and dissociation rate constant kd (1/s), were calculated from the sensorgrams obtained by the measurement. Then, KD (M) was determined based on the rate constants. Each parameter was determined using Biacore T100 Evaluation Software version 1.1 (GE Healthcare Biosciences).
(§2) The running buffer used was HBS-EP+. Each antibody was prepared at 0.25 μg/ml, or prepared so that about 100 RU would bind to Protein A. rhNR10 used as an analyte was prepared at 0, 38.5, 77.0, and 154 nM, or at 0, 19.25, and 77.01 nM using HBS-EP+. In the measurement, first, the antibody solution was captured on Protein A, and an analyte solution was reacted at a flow rate of 20 μL/min for three minutes. Then, the solution was switched to HBS-EP+, and the dissociation phase was measured for five minutes. After measurement of the dissociation phase, the sensor chip was regenerated by washing with 10 mM glycine-HCl (pH 1.5). The obtained sensorgrams were kinetically analyzed using the Biacore-specific data analysis software, Biacore T100 Evaluation Software Version 1.1.

In experiment [2] the target is T2, cytoplasmic domain-lacking human NR10 on CHO cells (hNR10-expressing CHO cells) (human, UniProt Q8NI17 20-553).
T2 construct: also called NR10-expressing cells
T2 sequence: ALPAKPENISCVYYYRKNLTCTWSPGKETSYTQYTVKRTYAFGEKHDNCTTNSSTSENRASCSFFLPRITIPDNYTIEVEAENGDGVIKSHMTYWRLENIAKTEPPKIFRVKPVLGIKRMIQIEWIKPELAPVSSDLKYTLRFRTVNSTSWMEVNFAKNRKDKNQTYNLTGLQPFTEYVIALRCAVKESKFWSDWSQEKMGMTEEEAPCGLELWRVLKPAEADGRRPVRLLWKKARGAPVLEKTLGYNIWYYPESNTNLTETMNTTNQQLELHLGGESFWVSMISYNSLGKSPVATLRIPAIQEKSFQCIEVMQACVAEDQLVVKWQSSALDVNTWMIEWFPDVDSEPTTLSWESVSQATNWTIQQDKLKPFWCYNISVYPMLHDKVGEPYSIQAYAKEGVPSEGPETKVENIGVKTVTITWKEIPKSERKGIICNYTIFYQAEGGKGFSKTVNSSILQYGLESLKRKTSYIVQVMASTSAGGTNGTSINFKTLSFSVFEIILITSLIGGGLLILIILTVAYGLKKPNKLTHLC
Kind of experiment: FMAT competition on hNR10-expressing CHO cells: antibody titrated against FMAT Blue-labeled hIL-31; FL1 = cell-bound labeled hIL-31; mean±S.D. (n=3). As for the experimental part:
(§3) Antibodies were assessed for the activity of inhibiting the IL-31/NR10 binding by using hNR10-expressing CHO cells as described below. The chimeric NS22 antibody and NS22_H0L0 (H chain, H0-SKSC/SEQ ID NO: 54; L chain, L0/SEQ ID NO: 56) were diluted at an appropriate concentration using Assay buffer (10 mM HEPES, 140 mM NaCl, 2.5 mM CaCl₂, 3 mM MgCl₂, 2% FBS, 0.01% NaN₃, pH7.4), and further eight serial dilutions were prepared at a common dilution ration of 2. The dilutions were added at 40 μl/well to plates (96-Well FMAT Plates, Applied Biosystems). Then, FMAT Blue-labeled hIL-31 was diluted 400 times with Assay buffer, and added at 20 μl/well. Finally, a cell suspension adjusted to 2.5×10⁵ cells/ml using Assay buffer was added at 40 μl/well (final 1×10⁴ cells/well). Two hours after addition of cells, the fluorescence (FL1) was measured using the 8200 Cellular Detection System (Applied Biosystems).
Each variant was tested for the activity of inhibiting the hIL-31/hNR10 binding by using FMAT. The test was carried out according to the method as described in Example 4.

The target in experiment [3] is T1, rhNR10 (recombinant human NR10). Briefly: SPR, Biacore T100; antibody captured on Protein A, rhNR10 as analyte. As for the experimental part:
as §1, §2
The source holds these as a separate data set.

For experiment [4], the target named is T2, cytoplasmic domain-lacking human NR10 …. Briefly: FMAT competition on hNR10-expressing CHO cells: antibody titrated against FMAT Blue-labeled hIL-31; FL1 = cell-bound labeled hIL-31. How it is done: (§4) Human IL-31 (R&D Systems) was labeled with FMAT Blue Monofunctional Reactive Dye (Applied Biosystems). 100 μl of hIL-31 prepared at 0.5 mg/ml using 50 mM sodium phosphate buffer (pH 8.0) was mixed with 5.25 μl of 25 nmoles FMAT Blue dissolved in DMSO (Junsei). After vortexing, the mixture was allowed to stand at room temperature for 15 minutes. The FMAT Blue-conjugating reaction with hIL-31 was terminated by adding 5 μl of 1 M Tris-HCl (pH 7.4) and 1.1 μl of 10% Tween20, and then FMAT Blue-labeled hIL-31 and unreacted FMAT Blue were separated by gel filtration using Superdex 75 (GE Healthcare, 17-0771-01) column with 0.1% Tween20/PBS developing solution.
as §3

Experiment [5] has as its target T1, rhNR10 (recombinant human NR10). Briefly: SPR, Biacore T100; antibody captured on Protein A, rhNR10 as analyte. How it is done:
as §1, §2
The source holds these as a separate data set.

Experiment [6] addresses T2, cytoplasmic domain-lacking human NR10 …. Briefly: FMAT competition on hNR10-expressing CHO cells: antibody titrated against FMAT Blue-labeled hIL-31; FL1 = cell-bound labeled hIL-31. As for the experimental part: as §4
NS22 and NA633 (the constant region of each is γ1, κ) were diluted at an appropriate concentration using Assay buffer (10 mM HEPES, 140 mM NaCl, 2.5 mM CaCl₂, 3 mM MgCl₂, 2% FBS, 0.01% NaN₃), and then seven serial dilutions were prepared at a common dilution ratio of 2. The dilutions were added at 40 μl/well to plates (96-Well FMAT Plates; Applied Biosystems). Then, FMAT Blue-labeled hIL-31 was diluted 400 times with Assay buffer and added at 20 μl/well. Finally, cell suspensions adjusted to 2.5×10⁵ cells/ml using Assay buffer were added at 40 μl/well (final 1×10⁴ cells/well). Two hours after addition of cells, the fluorescence (FL1) was determined using the 8200 Cellular Detection System (Applied Biosystems).
The source holds these as a separate data set.

Experiment [7] shares this target. Kind of experiment: FMAT competition on hNR10-expressing CHO cells: unlabeled chimeric antibody titrated against 8.8x10^-2 µg/ml FMAT Blue-NS22; FL1 = cell-bound labeled NS22. How it is done:
The antibody NS22 purified from a hybridoma culture supernatant was labeled with FMAT Blue (Applied Biosystems, 4328853). 170 μl of NS22 prepared at 1 mg/ml in PBS was mixed with 17 μl of 1 M NaHCO₃ solution and 3.4 μl of FMAT Blue (17 nmoles) dissolved in DMSO. After vortexing, the mixture was allowed to stand at room temperature for 30 minutes. The FMAT Blue conjugating reaction with NS22 was terminated by adding 8 μl of 1 M Tris-HCl (pH 7.4) and 1.9 μl of 1% Tween 20, and then FMAT Blue-labeled NS22 (FMAT Blue-NS22) and unreacted FMAT Blue were separated by gel filtration using Superdex 75 (GE Healthcare, 17-0771-01) column with 0.01% Tween20/PBS developing solution.
Each antibody was examined for inhibition of the binding of the prepared FMAT Blue-NS22 to hNR10-expressing CHO cells (Referential Example 3) using the 8200 Cellular Detection System (Applied Biosystems, 4342920). The chimeric anti-NR10 antibodies (the constant region of each is γ1, κ) were added at various concentrations to each well containing 7500 cells and 8.8×10⁻² μg/ml FMAT Blue-NS22. The cells were allowed to stand in the dark for four hours, and then the fluorescent signal from FMAT Blue bound to the cells was measured. […] The fluorescence value FL1, which represents the binding of FMAT Blue-NS22 to NR10-expressing cells, was reduced with the increase in the concentration of antibody NS22 or NS23.

B1: humanized NS22 H0L0 with constant region SKSC (H0L0-SKSC) (antibody)
heavy: QVQLVQSGAEVKKPGASVKVSCKASGYTFTGYIMNWVRQAPGQGLEWMGLINPYNGGTSYNQKFKGRVTITADESTSTAYMELSSLRSEDTAVYYCARDGYDDGPYTMDYWGQGTLVTVSSASTKGPSVFPLAPSSKSTSESTAALGCLVKDYFPEPVTVSWNSGALTSGVHTFPAVLQSSGLYSLSSVVTVPSSNFGTQTYTCNVDHKPSNTKVDKTVERKSCVECPPCPAPPVAGPSVFLFPPKPKDTLMISRTPEVTCVVVDVSHEDPEVQFNWYVDGVEVHNAKTKPREEQFNSTFRVVSVLTVVHQDWLNGKEYKCKVSNKGLPAPIEKTISKTKGQPREPQVYTLPPSREEMTKNQVSLTCLVKGFYPSDIAVEWESNGQPENNYKTTPPMLDSDGSFFLYSKLTVDKSRWQQGNVFSCSVMHEALHNHYTQKSLSLSPGK
light: DIQMTQSPSSLSASVGDRVTITCRTSENIYSFLAWYQQKPGKAPKLLIYNAKTLAKGVPSRFSGSGSGTDFTLTISSLQPEDFATYYCQHHYESPLTFGGGTKVEIKRTVAAPSVFIFPPSDEQLKSGTASVVCLLNNFYPREAKVQWKVDNALQSGNSQESVTEQDSKDSTYSLSSTLTLSKADYEKHKVYACEVTHQGLSSPVTKSFNRGEC
In the case of B1, the dissociation constant Kd is 3.3 nM in experiment [1]; 3.2 nM and 5.1 nM in experiment [3]; 3.2 nM in experiment [5]. Further, the dissociation rate constant (koff) in experiment [1] is 0.0012 s⁻¹; in experiment [3] it was 0.00062 s⁻¹ and 0.00074 s⁻¹; in experiment [5], 0.00091 s⁻¹. The kon in experiment [1] was 370000 M⁻¹ s⁻¹; in experiment [3] it was 190000 M⁻¹ s⁻¹ and 150000 M⁻¹ s⁻¹; in experiment [5], 290000 M⁻¹ s⁻¹. In addition, the “IC50 (read off the curve)” value in experiment [2] and in experiment [4] was approximately 0.1 µg/mL in each case.

B2: humanized NS22 H1L0 (H1-SKSC / L0) (antibody, V domains shown)
VH: QVQLVQSGAEVKKPGASVKVSCKASGYTFTGYIMNWVRQAPGQGLEWMGLINPYNGGTSYNQKFKGRVTITADKSTSTAYMELSSLRSEDTAVYYCARDGYDDGPYTMDYWGQGTLVTVSS
VL: DIQMTQSPSSLSASVGDRVTITCRTSENIYSFLAWYQQKPGKAPKLLIYNAKTLAKGVPSRFSGSGSGTDFTLTISSLQPEDFATYYCQHHYESPLTFGGGTKVEIKR
On to B2, for which the binding result in experiment [4] is reported as “binds”.

B3: chimeric NA633 (human gamma1, kappa) (antibody, V domains shown)
VH: DVQLRESGPGLVKPSQSLSLTCTVTGYSITSDYAWNWIRQFPGNKLEWMGYISYSGSTSYNPSLKSRVSITRDTSKNQFFLQLNSVTTEDTATYYCAPMITTDWFFDVWGAGTTVTVSS
VL: DIVMTQSPATLSVTPGDRVSLSCRASHDISDFLHWYQQKSHESPRLLIKYASQSISGIPSRFSGSGSGSDFTLSINSVEPEDVGVYYCQNGHSFPWTFGGGTKLEIK
notes: Mouse variable regions with human constant regions (H chain gamma1)
In the case of B3, the binding result in experiment [6] is “binds”.

B4: chimeric NS22 (human gamma1, kappa) (antibody, V domains shown)
VH: EVQLQQSGPELVKPGASMKISCKASGYSFTGYIMNWVKQSHGKNLEWIGLINPYNGGTSYNQKFKGKATLTVDKSSSTAYMELLSLTSEDSAVYYCARDGYDDGPYTMDYWGQGTSVTVSS
VL: DIQMTQSPASLSASVGETVTITCRTSENIYSFLAWYQQKQGKSPHLLVYNAKTLAKGVPSRFSGSGSGTQFSLKINSLQPEDFGSYFCQHHYESPLTFGGGTKLEIK
notes: also called chimeric NS22 antibody; the chimeric antibody
B4: the figures for the “IC50 (read off the curve)” value in experiment [4] and in experiment [7] were approximately 0.1 µg/mL and approximately 0.5 µg/mL, respectively.

B5: chimeric NS23 (human gamma1, kappa) (antibody, V domains shown)
VH: B4 VH with A16T, T58A, S59E, G66D, L70F
VL: B4 VL with I21F, T25A, S26N, F32Y, H45Q, K56E, F87Y, E93G, S94T, L96P
B5: in experiment [7], the “IC50 (read off the curve)” value is approximately 0.5 µg/mL.
